Measurements taken from patent publication US20210139917.

B1: peptide cyclization enzyme from Goodfellowiella coeruleoviolacea NBRC 14988 (protein)
chain: VPNEQDLGSLLARLAERHRVPGAQLSVCHDSASVTVVTGRERHGAATPVTARSAFPLGSLTKPFTAALAMVLVADGDLDLDEPVAGYHPGVTLRRLLSHTAGLESNVDEQAAAGVPRRRWVTRYPARLAPEHPPGTVFSYSNVGYLLAGHLVEEVTGLDWAEAVESVLLRPLGITPAFVVGAAGSRGVVCGHVLTDDRVLPVAEQVMPEVEAPNGALALSSADLLAFAALFSANSPAPDVLDPATAALMCQDQLADVRVGPYGMADGWGLGWARYRGAGADWFGHDGTGDGTSCHLRFDPERGTAVALTTNGSTGAALWRELCAELAERHVLPPEWGREPGEATPVAGPPDGAGHYANGPAEFVVTRQDDDGLALVLDGAQAVPLTCLPDLRFQLRLGTTVLSGRFLRDPDTGGIDHIQVTGRLARRRQVTG
B2: peptide cyclization enzyme from Streptomyces noursei NBRC 15452 (protein)
chain: VHGDSADPAGYGAGDGSPLDLDLDRLARDCDVAGGQLAVHHHGVLETWEFGEEEPGAGRPVHSATAFPYGSTTKVCTATSVLQLVGDGDLDLDRPVREWLPEAGTVPEARRDHPALAATLRQLLSHTAGLPSDHDDADASSLRRWLTGFLAAPADARPAPGTFSYSNVGYGIAGRVVESVTGLPWYEAVRDYLLRPLGTAITALPAEPGSLPAGGLAGSAADLVRLGLLHIAEPGRPDLADPAALGEATRPTAGADPFGLADGWGPGLGHFGPAEDRWLGHDGTLDGATCHLRIHPRRGTVIALTTNSPTGQALWDAVVGALRDAGIDVGVYRPAPPPSLAQGGAPAGAAAFADCTGTYRNGDLAVTVGLDGPHLVLELPGGARELAEPLARRTFAARGAGAFLGRFAVDARTGAVHALQYSGRTLLRDTGRAHGARPH
B3: recombinant SurE protein (peptide cyclization enzyme derived from Streptomyces albidoflavus NBRC 12854) (protein)
chain: VGAEGAERDAVGALFEELVREHRVTGAQLSVYRDGALSEYATGLASVRTGEPVTPRTGFPFGSVTKFLTAELVMQFVCDGDLDLDDPLAGLLPDLGRAAGPPLGTATVRQLLSHTAGVVDSIEYDEMRGPSYRRFAAACARQPALFPPGLAFSYSNTGYCLLGAVIEAASGMDWWTAMDSCLLRPLGIEPAFLHDPRPGQGGAARPVAEGHALRAGGERAEHVDHMASLSLAAAGGLVGSATDLVTAARPHLADRKTFAQHDLLPEDAVLAMRTCVPDAEPFGLADGWGLGLMRHGTGDGAWYGHDGAVGGASCNLRIHPDRSLALALTANSTAGPKLWEALVARLPEAGLDVGHYALPVPDSAPLAPDAGHLGTYANGDLELMVTHDAAGDLFLTRESYSDYRLSLHEDDLFVARSGEPGALPITGRFVREHPAGPVALLQYGGRAMHRL

What was measured:
[1] = biological target: SB(L8F)-SNAC, peptide in which D-Leu at the C-terminus of SB-SNAC is substituted with D-Phe
[2] = biological target: substrate peptide 3 (SB-SNAC), SNAC body indicated with 3 in FIG. 2a
[3] = biological target: SB(L8A)-SNAC, peptide in which D-Leu at the C-terminus of SB-SNAC is substituted with D-Ala
[4] = biological target: substrate peptide (SNAC body) shown in FIG. 4
[5] = biological target: longer peptide (11 amino acid residues, SNAC body)
[6] = biological target: substrate in which Ile at the N-terminus of the compound indicated in 3 of FIG. 2a is substituted with L-Trp
[7] = biological target: shorter peptide (7 amino acid residues, SNAC body)
[8] = biological target: methyl ester of the compound indicated with 3 in FIG. 2a

Protein	peptide cyclization reaction, HPLC [1]	peptide cyclization reaction, HPLC [2]	peptide cyclization reaction, HPLC [3]	kcat/KM of the cyclization reaction relative to substrate 3 of FIG. 2a [1]	peptide cyclization reaction, HPLC analysis of the product [2]	peptide cyclization reaction, HPLC and mass spectrometry (extracted ion chromatogram) [4]	peptide cyclization reaction (data not shown) [5]	kcat/KM of the cyclization reaction relative to substrate 3 of FIG. 2a [6]	peptide cyclization reaction (data not shown) [7]	peptide cyclization reaction [8]
B1	the two enzymes produced cyclized peptides from three substrates	the two enzymes produced cyclized peptides from three substrates	the two enzymes produced cyclized peptides from three substrates							
B2	the two enzymes produced cyclized peptides from three substrates	the two enzymes produced cyclized peptides from three substrates	the two enzymes produced cyclized peptides from three substrates							
B3				two to five times higher than the kcat/KM value obtained when the compound indicated with 3 in FIG. 2a was used as a substrate	cyclized the substrate peptide to give a cyclized peptide 1 (Surugamide B) as a single product	a product having a molecular weight corresponding to the molecular weight (m/z 1038.8) of a cyclized product of Surugamide F (cyclic Surugamide F) was detected	a cyclized product was observed to be obtained by the recombinant SurE	two to five times higher than the kcat/KM value obtained when the compound indicated with 3 in FIG. 2a was used as a substrate	a cyclized product was observed to be obtained by the recombinant SurE	even when the methyl ester was used as a substrate, the same cyclized product as in the case of using the SNAC body was produced
